# ± gives the uncertainty stated by the source.
# Assay: self-splicing fitness, log relative to wild type (ln ratio); higher = more splicing; Tetrahymena group I intron in knt gene, E. coli kanamycin selection, DiMSum; sequences stand for … in CUCUCU…GGAGGGAAAAGUUAUCAGGCAUGCACCUGGUAGCUAGUCUUUAAACCAAUAGAUUGCAUCGGUUUAAAAGGCAAGACCGUCAAAUUGCGGGAAAGGGGUCAACAGCCGUUCAGUACCAAGUCUCAGGGGAAACUUUGAGAUGGCCUUGCAAAGGGUAUGGUAAUAAGCUGACGGACAUGGUCCUAACCACGCAGCCAAGUCCUAAGUCAACAGAUCUUCUGUUGAUAUGGAUGCAGUUCACAGACUAAAUGUCGGUCGGGGAAGAUGUAUUCUUCUCAUAAGAUAUAGUCGGACCUCUCCUUAAUGGGAGCUAGCGGAUGAAGUGAUGCAACACUGGAGCCGCUGGGAACUAAUUUGUAUGCGAAAGUAUAUUGAUUAGUUUUGGAGUACUCGUGGUCG
# Procedure, shortened: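 Fitness was computed with DiMSum as the error-weighted combination of replicate fold changes, kanamycin versus none, each normalised to wild type. The library randomised all eight intron nucleotides of the P1ex region, with the intron placed in the knt kanamycin-resistance gene on pET-22b(+) in E. coli BL21(DE3). Six replicate transformations were grown overnight at 37°C or 30°C on LB agar with or without 25 μg/mL kanamycin, plus 100 μg/mL carbenicillin, 50 μM IPTG and 0.2% rhamnose. Pooled colonies were amplicon-sequenced on an Illumina HiSeq 2500.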
Sequence,self-splicing fitness (ln) (30 °C),self-splicing fitness (ln) (37 °C)
AGGUAGCAAUAUUACGGCUC,-0.672 ± 0.017,-0.185 ± 0.036
GGAUAGCAAUAUUACGUCAA,-1.09 ± 0.19,0.00829 ± 0.15
CCGCAGCAAUAUUACGCUUA,-3.07 ± 0.17,-2.9 ± 0.25
AAACAGCAAUAUUACGCAGU,-3.42 ± 0.15,-1.44 ± 0.12
CUUGAGCAAUAUUACGUAAC,-1.67 ± 0.38,
AAAGAGCAAUAUUACGGAUU,-0.754 ± 0.18,-1.45 ± 0.17
UAUAAGCAAUAUUACGUUUA,-1.03 ± 0.1,-0.548 ± 0.11
CAAAAGCAAUAUUACGGACA,-2.21 ± 0.15,-1.64 ± 0.17
CCAUAGCAAUAUUACGACCA,-2.52 ± 0.46,
GGAAAGCAAUAUUACGUGCU,-1.11 ± 0.089,-0.467 ± 0.096
GACUAGCAAUAUUACGAGGC,,-2.23 ± 0.3
UCCCAGCAAUAUUACGUAGA,-0.0439 ± 0.054,0.435 ± 0.073
GACAAGCAAUAUUACGGGUA,-0.935 ± 0.066,-0.82 ± 0.069
CGGAAGCAAUAUUACGAUAG,-1.11 ± 0.082,0.166 ± 0.1
UCCAAGCAAUAUUACGUAAC,-3.57 ± 0.17,-1.41 ± 0.15
UUCUAGCAAUAUUACGUUUG,-3.49 ± 0.35,-2.66 ± 0.4
CAUUAGCAAUAUUACGGUUC,-3.48 ± 0.21,-2.55 ± 0.23
ACCAAGCAAUAUUACGGCGU,-1 ± 0.05,0.0505 ± 0.064
UCACAGCAAUAUUACGGGUA,-1.93 ± 0.13,-0.772 ± 0.1
ACAUAGCAAUAUUACGUACG,-2.39 ± 0.12,-1.87 ± 0.16

Sequence,self-splicing fitness (ln) (30 °C),self-splicing fitness (ln) (37 °C)
UUGUAGCAAUAUUACGGCCU,-0.844 ± 0.2,-0.408 ± 0.25
UAGUAGCAAUAUUACGUAAC,-3.54 ± 0.15,-1.89 ± 0.15
UCCUAGCAAUAUUACGCGUG,-4.1 ± 0.15,-2.75 ± 0.12
AAUAAGCAAUAUUACGAAAU,-2.34 ± 0.14,-1.4 ± 0.15
CACCAGCAAUAUUACGCCUU,-3.62 ± 0.14,-1.72 ± 0.12
ACUUAGCAAUAUUACGUGUU,-3.22 ± 0.16,-1.5 ± 0.12
UCGGAGCAAUAUUACGAGCA,-2.39 ± 0.23,-1.51 ± 0.27
AAAUAGCAAUAUUACGGAGG,-3.39 ± 0.2,-2.86 ± 0.26
UCAAAGCAAUAUUACGACGA,-0.51 ± 0.074,0.278 ± 0.095
CGCGAGCAAUAUUACGACCC,-0.487 ± 0.44,
UGUAAGCAAUAUUACGACCU,-0.205 ± 0.13,-0.0468 ± 0.12
ACGUAGCAAUAUUACGUAAC,-3.5 ± 0.37,-2.46 ± 0.48
ACUAAGCAAUAUUACGUCGG,-1.99 ± 0.068,-1.04 ± 0.087
GAGGAGCAAUAUUACGUUAU,-3.32 ± 0.23,-2.96 ± 0.32
AUUGAGCAAUAUUACGUGCC,-2.73 ± 0.4,
GCAAAGCAAUAUUACGUUUC,-4.41 ± 0.28,-3.44 ± 0.23
CAUGAGCAAUAUUACGCGCU,-3.58 ± 0.42,-2.21 ± 0.4
GGAUAGCAAUAUUACGCCCU,-2.08 ± 0.14,-2.27 ± 0.17
AUUCAGCAAUAUUACGGUGC,-2.13 ± 0.16,-0.156 ± 0.14

# From the supplement of paper PMC7877785
